This passage reports Kd results from patent US20150368316A1 (ALBERT EINSTEIN COLLEGE OF MEDICINE OF YESHIVA UNIVERSITY, published 2015).

Assay [1] concerns the target human PD-L1 on mature human monocyte-derived dendritic cells (human) (UniProt Q9NZQ7). Briefly: flow cytometry, Kd estimated from MFI of Ig fusion protein binding to TNF-α-matured human monocyte-derived dendritic cells; the cells express both PD-L1 and PD-L2, so the value is an apparent avidity not resolved between the two ligands [panel B, table].
Assay [2] addresses human PD-L2 on mature human monocyte-derived dendritic cells (human) (UniProt Q9BQ51). Described as above.

human PD-L2 on mature human monocyte-derived dendritic cells (human), sequence (Q9BQ51 20-273): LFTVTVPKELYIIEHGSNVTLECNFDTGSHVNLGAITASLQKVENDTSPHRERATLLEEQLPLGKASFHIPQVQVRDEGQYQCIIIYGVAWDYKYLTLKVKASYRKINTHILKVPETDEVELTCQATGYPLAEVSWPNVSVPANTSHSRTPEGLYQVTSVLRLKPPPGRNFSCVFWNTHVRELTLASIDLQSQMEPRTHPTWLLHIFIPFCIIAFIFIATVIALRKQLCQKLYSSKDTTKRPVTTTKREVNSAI
human PD-L1 on mature human monocyte-derived dendritic cells (human), sequence (Q9NZQ7 19-290): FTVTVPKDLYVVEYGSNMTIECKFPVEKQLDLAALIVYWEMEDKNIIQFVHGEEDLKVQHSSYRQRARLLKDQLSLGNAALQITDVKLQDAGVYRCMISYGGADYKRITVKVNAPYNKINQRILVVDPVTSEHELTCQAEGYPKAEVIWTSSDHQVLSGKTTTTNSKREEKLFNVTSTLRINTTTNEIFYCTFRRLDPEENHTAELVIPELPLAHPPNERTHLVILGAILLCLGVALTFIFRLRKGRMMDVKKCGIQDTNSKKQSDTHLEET

Turning to PD-1 Ig (Fc fusion), the Kd in assay [1] and in assay [2] was 0.325 µM each time.
